Data: patent US20190309066A1, “COMBINATION THERAPY FOR THE TREATMENT OF SOLID AND HEMATOLOGICAL CANCERS” (Arch Oncology, Inc., priority 2017, published 2019)

B1: VLX9 IgG (murine): murine VLX9 anti-CD47 antibody (antibody, V domains shown)
VH: QVQLQQFGAELAKPGASVQMSCKASGYTFTNYWIHWVKQRPGQGLEWIGYTDPRTDYTEYNQKFKDKATLAADRSSSTAYMRLSSLTSEDSAVYYCAGGGRVGLGYWGHGSSVTVSS
VL: DVFMTQTPLSLPVSLGDQASISCRSSQNIVQSNGNTYLEWYLQKPGQSPKLLIYKVFHRFSGVPDRFSGSGSGTDFTLKISRVEAEDLGVYYCFQGSHVPWTFGGGTKVEIK
B2: VLX9 IgG2 (xi): chimeric (murine-human) anti-CD47 mAb, human IgG2 (antibody)
heavy: QVQLQQFGAELAKPGASVQMSCKASGYTFTNYWIHWVKQRPGQGLEWIGYTDPRTDYTEYNQKFKDKATLAADRSSSTAYMRLSSLTSEDSAVYYCAGGGRVGLGYWGHGSSVTVSSASTKGPSVFPLAPCSRSTSESTAALGCLVKDYFPEPVTVSWNSGALTSGVHTFPAVLQSSGLYSLSSVVTVPSSNFGTQTYTCNVDHKPSNTKVDKTVERKCCVECPPCPAPPVAGPSVFLFPPKPKDTLMISRTPEVTCVVVDVSHEDPEVQFNWYVDGVEVHNAKTKPREEQFNSTFRVVSVLTVVHQDWLNGKEYKCKVSNKGLPAPIEKTISKTKGQPREPQVYTLPPSREEMTKNQVSLTCLVKGFYPSDIAVEWESNGQPENNYKTTPPMLDSDGSFFLYSKLTVDKSRWQQGNVFSCSVMHEALHNHYTQKSLSLSPGK
light: DVFMTQTPLSLPVSLGDQASISCRSSQNIVQSNGNTYLEWYLQKPGQSPKLLIYKVFHRFSGVPDRFSGSGSGTDFTLKISRVEAEDLGVYYCFQGSHVPWTFGGGTKVEIKRTVAAPSVFIFPPSDEQLKSGTASVVCLLNNFYPREAKVQWKVDNALQSGNSQESVTEQDSKDSTYSLSSTLTLSKADYEKHKVYACEVTHQGLSSPVTKSFNRGEC

Columns and labels:
[1] = target: T1, recombinant human CD47 (His-CD47) (Homo sapiens, UniProt Q08722); experiment: Solid-phase His-CD47 ELISA at pH 6 or pH 8; assay type: binding; conditions: pH 6.0 vs pH 8.0
T1 construct: His; purchased Acro Biosystems
T1 sequence (Q08722 19-323): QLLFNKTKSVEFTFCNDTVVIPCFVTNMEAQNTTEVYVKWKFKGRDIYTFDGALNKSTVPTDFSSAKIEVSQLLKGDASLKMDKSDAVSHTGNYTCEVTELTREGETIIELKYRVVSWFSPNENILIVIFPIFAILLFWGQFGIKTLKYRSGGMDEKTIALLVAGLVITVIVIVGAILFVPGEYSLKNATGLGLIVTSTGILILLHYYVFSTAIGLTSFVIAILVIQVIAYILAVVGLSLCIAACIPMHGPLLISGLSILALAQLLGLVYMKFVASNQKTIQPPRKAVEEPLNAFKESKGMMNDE
Description: Binding by soluble anti-CD47 mAbs to immobilized recombinant human CD47 and to human CD47 expressed on cells was measured in vitro. For the in vitro binding to recombinant CD47, His-CD47 (AcroBiosystems) was adsorbed to high-binding microtiter plates overnight at 4° C. The wells were washed and varying concentrations of anti-CD47 mAbs were added to the wells in buffers with a of either pH 6 or pH 8 for 1 hour. The wells were washed and then incubated with HRP-labelled secondary antibody for 1 hour at pH 6 or pH 8 followed by addition of peroxidase substrate. The apparent affinities were calculated using non-linear fit model (Graphpad Prism).

Jurkat cells = experiment: In vitro cell death assay (annexin V / 7-AAD); assay type: cell-based, human; conditions: 1 μg/ml soluble mAb, 24 hrs
Description: Induction of cell death by soluble anti-CD47 mAbs is measured in vitro (Manna et al. (2003) J. Immunol. […] (7): 3544-53, Kikuchi et al. Biochem Biophys Res. Commun. 315: 912-8, 2004), Pettersen et al. J. Immuno. 162: 7031-7040, 1999), Manna et al. Cancer Research, 64: 1026-1036, 2004). For the in vitro cell death assay, 1×10^5 transformed human T cells (Jurkat cells) were incubated with soluble humanized VLX4, VLX8, and VLX9 CD47 mAbs (1 μg/ml) for 24 hrs at 37° C. As cell death occurs, mitochondrial membrane potential is decreased, the inner leaflet of the cell membrane is inverted, exposing phosphatidylserines (PS), and propidium iodide (PI) or 7-aminoactinomycin D (7-AAD) is able to incorporate into nuclear DNA. In order to detect these cellular changes, cells were then stained with fluorescently labelled annexin V and PI or 7-aminoactinomycin D (7-AAD) (BD Biosciences) and the signal detected using an Accuri C6 flow cytometer (BD Biosciences). The increase in PS exposure is determined by measuring the percent increase in annexin V signal and the percent of dead cells by measuring the percent increase in PI or 7-AAD signal. Annexin V positive (annexin V+) or annexin V positive/7-AAD negative (annexin V^+/7-AAD^−) cells are observed in early stages of cell death and annexin V positive/7-AAD positive (annexin V^+/7-AAD^+) cells are dead cells. […]

[2] = system: human red blood cells (hRBCs); experiment: Hemagglutination of washed hRBCs; assay type: cell-based; conditions: mAb concentrations 50 μg/ml down to 0.3 ng/ml or 0.3 pg/ml
Description: Hemagglutination of hRBCs was assessed following incubation of hRBCs with various concentrations of chimeric and humanized VLX4, VLX8, and VLX9 mAbs in vitro essentially as described by Kikuchi et al. Biochem Biophys Res. Commun (2004) 315:912-918. Blood was obtained from healthy donors, diluted (1:50) in PBS/1 mM EDTA/BSA and washed 3 times with PBS/EDTA/BSA. hRBCs were added to U-bottomed 96 well plates with equal volumes of the antibodies (75 μl of each) and incubated for 3 hrs at 37° C. and overnight at 4° C.

Molecule | pH dependence of binding to His-CD47 [1] | PS exposure and cell death (annexin V+, annexin V+/7-AAD−, annexin V+/7-AAD+) (Jurkat cells) | hemagglutination of hRBCs (in words) [2]
B1 | did not display pH dependence | – | –
B2 | – | induced increased PS exposure and cell death | caused visible hemagglutination
